How the values were obtained:
Assay type in all cases: biochemical
Conditions in all cases: 30° C., pH 7.0
[1] = Specific activity of starch synthase aqueous solution
Method: Reaction solution (13) was prepared by adding 10 μL of starch synthase aqueous solution (B-4) obtained in Preparation 13 to 1 mL of aqueous solution V (50 mM phosphate buffer (pH of 7.0) containing 100 mM uridine diphosphate-α-glucose (^14C-labeled radioactive isotope-containing uridine diphosphate-α-glucose; radioactivity of 300 mCi/mmol), 100 mM sodium chloride, 10 mM magnesium chloride, and 5 mM oleic acid). Four such solutions (13) were prepared and allowed to react at 30° C. for 5 minutes, 10 minutes, 15 minutes, and 20 minutes, respectively. Starch was separated from the unreacted substrate by paper chromatography using filter paper, and then the origin was cut out and immersed in a liquid scintillation cocktail. The radioactive isotope was then measured using a liquid scintillation counter. The yield of starch was calculated from the amount of uptake of ^14C-labeled glucose. The results were 1.3 mg after 5 minutes, 2.5 mg after 10 minutes, 3.8 mg after 15 minutes, and 5.2 mg after 20 minutes. The specific activity of starch synthase aqueous solution (B-4) was calculated from the relationship between the yield of starch and the reaction time. The result was 0.15 U/μL.

[2] = Activity of uridylyltransferase (G-1) to produce uridine diphosphate-glucuronic acid
Method: (§1) Reaction solution (10-1) was prepared by adding 10 μL of uridine triphosphate-monosaccharide-1-phosphate uridylyltransferase aqueous solution (G-1) obtained in Preparation 10 to 1 mL of aqueous solution (50 mM phosphate buffer (pH of 7.0) containing 100 mM sodium chloride, 10 mM magnesium chloride, 10 mM uridine triphosphate, and 10 mM N-acetylglucosamine-1-phosphate). Three such reaction solutions (10-1) were prepared and allowed to react at 30° C. for 5 minutes, 10 minutes, and 15 minutes, respectively. As for the quantity of the produced uridine diphosphate-N-acetylglucosamine, the product was detected with a UV light (260 nm) in HPLC. The activity of uridine triphosphate-monosaccharide-1-phosphate uridylyltransferase to produce uridine diphosphate-N-acetylglucosamine was determined from the amount of uridine diphosphate-N-acetylglucosamine production. The result was 0.1 U/mL.
The activity of uridine triphosphate-monosaccharide-1-phosphate uridylyltransferase to produce uridine diphosphate-glucuronic acid was determined in a similar manner as described above, except that an aqueous solution containing “10 mM glucuronic acid 1-phosphate” was used in place of “10 mM N-acetylglucosamine-1-phosphate” and “uridine diphosphate-glucuronic acid” was quantitated in place of “uridine diphosphate-N-acetylglucosamine”. The result was 5 U/μL.

[3] = Activity of uridylyltransferase (G-1) to produce uridine diphosphate-N-acetylglucosamine
Method: as §1

[4] = Specific activity of hyaluronan synthase aqueous solution (14C-glucuronic acid uptake)
Method: Reaction solution (1) was prepared by adding 10 μL of hyaluronan synthase aqueous solution (B-1) obtained in Preparation 1 to 1 mL of aqueous solution S (50 mM phosphate buffer (pH of 7.0) containing 1 mM uridine diphosphate-glucuronic acid (labeled radioactive radioactivity of 300 mCi/mmol), 1 mM uridine diphosphate-N-acetylglucosamine, 100 mM sodium chloride, 10 mM magnesium chloride, 10 mM dodecylmaltoside, and 5 mM oleic acid). Four such reaction solutions (1) were prepared and allowed to react at 30° C. for 5 minutes, 10 minutes, 15 minutes, and 20 minutes, respectively. Hyaluronan was separated from the unreacted substrate by paper chromatography (developing solvent containing 1 M ammonium acetate (pH of 5.5) and ethanol at a 7:13 ratio, hereinafter the same) using filter paper (Whatman No. 3 MM, hereinafter the same), and then the origin was cut out and immersed in a liquid scintillation cocktail. The radioactive isotope was then measured using a liquid scintillation counter. The amount of hyaluronan synthesis was calculated from the amount of uptake of ^14C-labeled glucuronic acid. The results were 1.6 mg after 5 minutes, 2.9 mg after 10 minutes, 4.2 mg after 15 minutes, and 5.5 mg after 20 minutes. The specific activity of hyaluronan synthase aqueous solution (B-1) was calculated from the relationship between the amount of hyaluronan synthesis and the reaction time. […]

[5] = Specific activity of chondroitin synthase aqueous solution
Method: Reaction solution (11) was prepared by adding 10 μL of chondroitin synthase aqueous solution (B-2) obtained in Preparation 11 to 1 mL of aqueous solution T (50 mM phosphate buffer (pH of 7.0) containing 1 mM uridine diphosphate-glucuronic acid (^14C-labeled radioactive isotope-containing uridine diphosphate-glucuronic acid; radioactivity of 300 mCi/mmol), 1 mM uridine diphosphate-N-acetylgalactosamine, 100 mM sodium chloride, 10 mM magnesium chloride, 10 mM dodecylmaltoside, and 5 mM oleic acid). Three such reaction solutions (11) were prepared and allowed to react at 30° C. for 5 minutes, 10 minutes, and 15 minutes, respectively. Chondroitin was separated from the unreacted substrate by paper chromatography using filter paper. Subsequently, the origin was cut out and immersed in a liquid scintillation cocktail, and the radioactive isotope was then measured using a liquid scintillation counter. The yield of chondroitin was calculated from the amount of uptake of ^14C-labeled glucuronic acid. The results were 1.7 μg after 5 minutes, 3.1 μg after 10 minutes, and 4.4 μg after 15 minutes. The specific activity of chondroitin synthase aqueous solution (B-2) was calculated from the relationship between the yield of chondroitin and the reaction time. The result was 0.15 U/mL.

B1: starch synthase aqueous solution (B-4): starch synthase, SEQ ID NO: 13, derived from Saccharomyces cerevisiae (protein, listed as Saccharomyces cerevisiae)
chain: MSRDLQNHLLFETATEVANRVGGIYSVLKSKAPITVAQYKDHYHLIGPLNKATYQNEVDILDWKKPEAFSDEMRPVQHALQTMESRGVHFVYGRWLIEGAPKVILFDLDSVRGYSNEWKGDLWSLVGIPSPENDFETNDAILLGYTVAWFLGEVAHLDSQHAIVAHFHEWLAGVALPLCRKRRIDVVTIFTTHATLLGRYLCASGSFDFYNCLESVDVDHEAGRFGIYHRYCIERAAAHSADVFTTVSQITAFEAEHLLKRKPDGILPNGLNVIKFQAFHEFQNLHALKKEKINDFVRGHFHGCFDFDLDNTLYFFIAGRYEYKNKGADMFIEALARLNYRLKVSGSKKTVVAFIVMPAKNNSFTVEALKGQAEVRALENTVHEVTTSIGKRIFDHAIRYPHNGLTTELPTDLGELLKSSDKVMLKRRILALRRPEGQLPPIVTHNMVDDANDLILNKIRQVQLFNSPSDRVKMIFHPEFLNANNPILGLDYDEFVRGCHLGVFPSYYEPWGYTPAECTVMGVPSITTNVSGFGAYMEDLIETNQAKDYGIYIVDRRFKAPDESVEQLVDYMEEFVKKTRRQRINQRNRTERLSDLLDWKRMGLEYVKARQLALRRGYPDQFRELVGEELNDSNMDALAGGKKLKVARPLSVPGSPRDLRSNSTVYMTPGDLGTLQEVNNADDYFSLGVNPAADDDDDGPYADDS
- specific activity [1]: 0.15 U/μL

B2: uridine triphosphate-monosaccharide-1-phosphate uridylyltransferase aqueous solution (G-1): uridylyltransferase, SEQ ID NO: 10, derived from Arabidopsis (protein)
chain: MASTVDSNFFSSVPALHSNLGLLSPDQIELAKILLENGQSHLFQQWPELGVDDKEKLAFFDQIARLNSSYPGGLAAYIKTAKELLADSKVGKNPYDGFSPSVPSGENLTFGTDNFIEMEKRGVVEARNAAFVLVAGGLGERLGYNGIKVALPRETTTGTCFLQHYIESILALQEASNKIDSDGSERDIPFIIMTSDDTHSRTLDLLELNSYFGMKPTQVHLLKQEKVACLDDNDARLALDPHNKYSIQTKPHGHGDVHSLLYSSGLLHKWLEAGLKWVLFFQDTNGLLFNAIPASLGVSATKQYHVNSLAVPRKAKEAIGGISKLTHVDGRSMVINVEYNQLDPLLRASGFPDGDVNCETGFSPFPGNINQLILELGPYKDELQKTGGAIKEFVNPKYKDSTKTAFKSSTRLECMMQDYPKTLPPTARVGFTVMDIWLAYAPVKNNPEDAAKVPKGNPYHSATSGEMAIYRANSLILQKAGVKVEEPVKQVLNGQEVEVWSRITWKPKWGMIFSDIKKKVSGNCEVSQRSTMAIKGRNVFIKDLSLDGALIVDSIDDAEVKLGGLINNGWTMESVDYKDTSVPEEIRIRGFRFNKVEQLEKKLTQPGKFSVED
modifications: aqueous solution; Arabidopsis
- activity to produce uridine diphosphate-glucuronic acid [2]: 5 U/μL
- activity to produce uridine diphosphate-N-acetylglucosamine [3]: 0.1 U/mL

B3: hyaluronan synthase aqueous solution (B-1): FLAG-tagged hyaluronan synthase, SEQ ID NO: 1, from Streptococcus equisimilis, expressed in E. coli (protein)
chain: MPIFKKTLIVLSFIFLISILIYLNMYLFGTSTVGIYGVILITYLVIKLGLSFLYEPFKGNPHDYKVAAVIPSYNEDAESLLETLKSVLAQTYPLSEIYIVDDGSSNTDAIQLIEEYVNREVDICRNVIVHRSLVNKGKRHAQAWAFERSDADVFLTVDSDTYIYPNALEELLKSFNDETVYAATGHLNARNRQTNLLTRLTDIRYDNAFGVERAAQSLTGNILVCSGPLSIYRREVIIPNLERYKNQTFLGLPVSIGDDRCLTNYAIDLGRTVYQSTARCDTDVPFQLKSYLKQQNRWNKSFFRESIISVKKILSNPIVALWTIFEVVMFMMLIVAIGNLLFNQAIQLDLIKLFAFLSIIFIVALCRNVHYMVKHPASFLLSPLYGILHLFVLQPLKLYSLCTIKNTEWGTRKKVTIFK
modifications: FLAG tag; aqueous solution; STREPTOCOCCUS
- specific activity [4]: 0.15 U/μL

B4: chondroitin synthase aqueous solution (B-2): chondroitin synthase, SEQ ID NO: 11, derived from Pasteurella multocida (protein, listed as Pasteurella multocida)
chain: MNTLSQAIKAYNSNDYELALKLFEKSAETYGRKIVEFQIIKCKEKLSTNSYVSEDKKNSVCDSSLDIATQLLLSNVKKLTLSESEKNSLKNKWKSITGKKSENAEIRKVELVPKDFPKDLVLAPLPDHVNDFTWYKNRKKSLGIKPVNKNIGLSIIIPTFNRSRILDITLACLVNQKTNYPFEVVVADDGSKENLLTIVQKYEQKLDIKYVRQKDYGYQLCAVRNLGLRTAKYDFVSILDCDMAPQQLWVHSYLTELLEDNDIVLIGPRKYVDTHNITAEQFLNDPYLIESLPETATNNNPSITSKGNISLDWRLEHFKKTDNLRLCDSPFRYFSCGNVAFSKEWLNKVGWFDEEFNHWGGEDVEFGYRLFAKGCFFRVIDGGMAYHQEPPGKENETDREAGKSITLKIVKEKVPYIYRKLLPIEDSHIHRIPLVSIYIPAYNCANYIQRCVDSALNQTVVDLEVCICNDGSTDNTLEVINKLYGNNPRVRIMSKPNGGIASASNAAVSFAKGYYIGQLDSDDYLEPDAVELCLKEFLKDKTLACVYTTNRNVNPDGSLIANGYNWPEFSREKLTTAMIAHHFRMFTIRAWHLTDGFNENIENAVDYDMFLKLSEVGKFKHLNKICYNRVLHGDNTSIKKLGIQKKNHFVVVNQSLNRQGINYYNYDKFDDLDESRKYIFNKTAEYQEEMDILKDLKLIQNKDAKIAVSIFYPNTLNGLVKKLNNIIEYNKNIFVIILHVDKNHLTPDIKKEILAFYHKHQVNILLNNDISYYTSNRLIKTEAHLSNINKLSQLNLNCEYIIFDNHDSLFVKNDSYAYMKKYDVGMNFSALTHDWIEKINAHPPFKKLIKTYFNDNDLRSMNVKGASQGMFMKYALPHELLTIIKEVITSCQSIDSVPEYNTEDIWFQFALLILEKKTGHVFNKTSTLTYMPWERKLQWTNEQIQSAKKGENIPVNKFIINSITL
modifications: aqueous solution
- specific activity [5]: 0.15 U/mL

From patent US9670514B2, “Method for producing polysaccharide” (SANYO CHEMICAL INDUSTRIES, LTD., priority 2011, dated 2017)
